Sequences and labels used below:
B1: CPEB3 Ribozyme (parent)
chain: GGGGGCCACAGCAGAAGCGUUCACGUCGCGGCCCCUGUCAGAUUCUGGUGAAUCUGCGAAUUCUGCUGU

Consider 167 variants from the RNAGym collection of RNA variant scans (doi:10.7554/elife.80360).

Variants of B1 are the subject of the series. Briefly: self-cleavage, relative activity (ratio to wild type); higher = more cleavage; co-transcriptional.
As to C34G U69G, the self-cleavage stood at 0.926. With C35G G68U, the self-cleavage amounted to 0.687. With C35G G47A the figure was 0.477. For U36G C63A, the self-cleavage was found to be 0.147. The same measure for C35G U67C: 0.486. The same measure for U36G U44C: 0.118; for C35G G41C: 0.295. The same measure for C35G G41A: 0.294. As to C35G C63U, the self-cleavage stood at 0.47.

As to C35G C63G, the self-cleavage is 0.361.

On to U36A U53C, for which the self-cleavage worked out at 0.181. On to U36C U69A, for which the self-cleavage was found to be 0.996. The same measure for C35A G58C: 0.25; for C35A G58A: 0.196.

On to C35G U46G, for which the self-cleavage came to 0.335. Regarding C35G U46A, the self-cleavage came out at 0.618. The same measure for C35A C57G: 0.192. With C35A C57A the figure was 0.218. With G37A U44A the figure was 0.277; with U36A C66G, 0.257; with C35U C54G, 0.72. As to C35U C54U, the self-cleavage amounted to 0.929.

As for U36G U69C, the self-cleavage is 0.493. Regarding U36G U69G, the self-cleavage is 0.45. The same measure for C34G U55C: 0.327; for C34G U55G: 0.475; for C34G U55A: 0.386. The same measure for G37C G48C: 0.226. The same measure for C34U G58U: 1. Turning to C34U G58A, the self-cleavage worked out at 0.92. With C34U G58C, the self-cleavage worked out at 0.995. On to U36G A42U, for which the self-cleavage was found to be 0.256. For the variant U36G A42C, the self-cleavage was found to be 0.221. Regarding G37A C66G, the self-cleavage amounted to 0.265.

On to G37A C66A, for which the self-cleavage came to 0.227. With C35U A60C the figure was 0.368; with C35U A60U, 0.395. On to C35U A60G, for which the self-cleavage was found to be 0.522. The same measure for U36A G48A: 0.269; for C35G A42C: 0.308.

Consider C34U G48A, for which the self-cleavage stood at 0.986. Regarding C34U G48C, the self-cleavage worked out at 0.974. The same measure for G37A G58U: 0.247; for G37A G58A: 0.289.

Consider U36A G41A, for which the self-cleavage was found to be 0.146. Turning to G37A G56U, the self-cleavage came to 0.257.

Turning to G37A G56A, the self-cleavage was determined as 0.249. As to C34U U62C, the self-cleavage came out at 0.896.

Take C35A: the self-cleavage was 0.281.

C35U: the self-cleavage stood at 0.973. As to C35G, the self-cleavage is 0.478. U36A C39U: the self-cleavage came out at 0.237. The same measure for U36A C39G: 0.15; for U36C C66U: 0.891. The same measure for U36G G50A: 0.214. With U36G G50C the figure was 0.231; with C34G G58C, 0.654. Consider C34G G58U, for which the self-cleavage worked out at 0.772.

For C34G G58A, the self-cleavage was determined as 0.463. With C35U C66G the figure was 0.813. As to C35U C66U, the self-cleavage turned out to be 0.905.

For C35A C63G, the self-cleavage stood at 0.22. For C35A C63U, the self-cleavage was determined as 0.251. The same measure for G37A U64C: 0.312; for U36G U67G: 0.252; for C34G U43A: 0.551.

As for C35U U62C, the self-cleavage came to 0.752. As to C35U U43G, the self-cleavage came to 0.753.

Consider C35A C45U, for which the self-cleavage was found to be 0.261. With C35A C45G the figure was 0.179.

Take C35A C45A: the self-cleavage was 0.22. With U36C G68U the figure was 1.01; with U36C U55G, 0.454; with U36C U55A, 0.888.

In the case of U36C U55C, the self-cleavage worked out at 0.74. With C35G G58A the figure was 0.243; with U36G A40U, 0.259.

Regarding C34G U36A, the self-cleavage was determined as 0.192.

Regarding C34U C63U, the self-cleavage is 1. With C34U C63A the figure was 0.869. For the variant C35G U55C, the self-cleavage is 0.33. The same measure for C35G U55G: 0.238; for C35G U55A: 0.267. Consider C34G A59C, for which the self-cleavage was determined as 0.291. Regarding G37A G50A, the self-cleavage worked out at 0.304. Take C35G G65C: the self-cleavage was determined as 0.374. Turning to C35G G65A, the self-cleavage came to 0.357. As to U36G A51G, the self-cleavage turned out to be 0.179. With U36G A51U, the self-cleavage turned out to be 0.117. The same measure for U36G A51C: 0.25; for U36G U62A: 0.131; for U36G U62G: 0.238. With C35U U64G, the self-cleavage worked out at 0.874. The same measure for C34U U67C: 1.01; for C34U U67A: 1.01; for U36G G65U: 0.0921.

For the variant C35U C39U, the self-cleavage is 0.85. The same measure for U36G G56C: 0.284; for C35U G41A: 0.635. Turning to C35A G65C, the self-cleavage stood at 0.191. The same measure for C35U G68A: 0.992. On to C35G A52G, for which the self-cleavage turned out to be 0.458. With G37A A59U the figure was 0.215; with U36G G47U, 0.148; with C35A C39A, 0.209.

Regarding U36A U64C, the self-cleavage was 0.298.

Consider C35A G68A, for which the self-cleavage came to 0.358. On to U36C G50A, for which the self-cleavage worked out at 0.948.

In the case of U36C G50U, the self-cleavage amounted to 0.893. The same measure for C34U U43C: 0.892; for C34U U43A: 0.967.

Turning to U36A G37A, the self-cleavage worked out at 0.213. With U36A G37U the figure was 0.259; with U36A G37C, 0.198; with U36G G68A, 0.214. With U36G G68U the figure was 0.338; with U36G G68C, 0.436; with G37A C45A, 0.23. In the case of G37A U53A, the self-cleavage stood at 0.303. The same measure for G37A U53G: 0.222; for C35A U36A: 0.198; for U36G C45U: 0.232. Turning to U36C C57U, the self-cleavage amounted to 0.277.

In the case of C34U G68U, the self-cleavage came out at 1.04.

With G37C G47C, the self-cleavage was 0.18. Consider U36C C39A, for which the self-cleavage came out at 0.474. The same measure for U36C C39U: 0.732; for U36C A51G: 0.914. The same measure for G37A U62G: 0.318.

With C35U C57U, the self-cleavage came to 0.373.

Consider C35U C57G, for which the self-cleavage worked out at 0.302. The same measure for G37A U49A: 0.285; for G37A U49C: 0.303; for C34G U53A: 0.569. The same measure for U36A C54A: 0.2; for U36A C54G: 0.215; for U36C G58A: 0.731. The same measure for U36C G58C: 0.834. C35U U67A: the self-cleavage is 0.95.

For U36C U38C, the self-cleavage came to 0.631.

In the case of U36C U38A, the self-cleavage stood at 0.376. As to C35A C54G, the self-cleavage was determined as 0.199. Turning to C34G U61A, the self-cleavage was 0.458. With C34G U61G the figure was 0.311; with G37C U43G, 0.202. With C35G U49G the figure was 0.373; with C35G U49A, 0.444. With G37C A42G the figure was 0.213; with G37C A42C, 0.237.

In the case of G37C U44G, the self-cleavage was 0.211. As to G37C U44A, the self-cleavage was determined as 0.27.

Regarding U36G U64A, the self-cleavage stood at 0.254. With C35A A60U the figure was 0.181; with U36G U46A, 0.349. Regarding U36G U46G, the self-cleavage is 0.181. With C34U U36A the figure was 0.228. With C35G U62C the figure was 0.242.

As for G37C C45G, the self-cleavage came to 0.346. On to G37A U61G, for which the self-cleavage was found to be 0.221. The same measure for G37A U61C: 0.149. The same measure for C35U G50U: 0.94.

As for G37A G48C, the self-cleavage came out at 0.265.

With G37A G48A, the self-cleavage was 0.357. The same measure for U36G U49A: 0.237; for U36G U49G: 0.197.

As to G37A A51G, the self-cleavage is 0.332. The same measure for G37A A51C: 0.334.
